The values below come from IntAct's records for PubMed 12586840.

The target in this test is ap2a_human TFAP2A (UniProt P05549).
Sequence of ap2a_human TFAP2A (P05549 whole entry): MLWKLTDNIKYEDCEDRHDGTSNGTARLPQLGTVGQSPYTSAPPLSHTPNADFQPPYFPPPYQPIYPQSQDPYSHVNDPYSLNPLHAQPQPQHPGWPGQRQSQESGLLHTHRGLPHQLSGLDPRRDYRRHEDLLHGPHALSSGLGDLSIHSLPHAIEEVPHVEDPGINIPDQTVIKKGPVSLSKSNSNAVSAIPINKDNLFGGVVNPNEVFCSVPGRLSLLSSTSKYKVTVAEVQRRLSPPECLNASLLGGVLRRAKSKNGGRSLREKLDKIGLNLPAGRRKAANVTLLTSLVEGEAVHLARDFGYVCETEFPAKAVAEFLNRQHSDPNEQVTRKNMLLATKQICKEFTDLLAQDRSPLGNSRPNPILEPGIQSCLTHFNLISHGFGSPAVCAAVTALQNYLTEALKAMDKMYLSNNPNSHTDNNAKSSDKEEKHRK

In the case of “Histone acetyltransferase p300 (Homo sapiens), Q09472 D1399Y”, the “effect of a mutation on the interaction” value is given as “disrupting interaction”.
